Nine molecules from patent US12391762B2, “Methods and compositions relating to GLP1R variants” (Twist Bioscience Corporation, priority 2020, dated 2025) can be followed below.

A short description of experiment [1]: Insulin Tolerance Test (ITT). In kind it is in vivo, mouse. The settings on record: for Area Under the Curve (AUC) in ITT: vs control. As for the experimental part:
Animals. All animal procedures were approved by Institutional Animal Care and Use Committee (IACUC) at the University of California San Francisco and were conducted in accordance with the National Institutes of Health Guide for the Care and Use of laboratory Animals. C57BL/6NHsd (Envigo RMS, LLC) male littermates at 8-10 weeks of age, weighing ˜20-28 grams, were used in all the studies described. The mice were housed in a room that was temperature (22-25 C) and light controlled (12-h: 12-h light/dark cycle starting at 7 AM. The mice were fed with chow diet with 9% fat (PicoLab mouse Diet 20 (#5058), Lab Supply, Fortworth Texas, USA) for the duration of housing at the UCSF animal care facility.
1. mAb administered as a single dose, 15 hours prior to GTT and 21 hours prior to ITT. 2. mAb administered as a double dose, 15 hours prior to GTT and 21 hours prior to ITT plus a second mAb dose 2 hours prior to GTT and ITT. 3. mAb as a single dose 6 hours prior to GTT and ITT. 4. mAb single dose 2 hours prior to GTT and ITT.
Extendin 9-39 Peptide (MedChemExpress, Cat. No.: HY-P0264) were dosed at 1.0 or 0.23 mg/kg at three different administration regimen groups. 1. Extendin administered as a single dose, 21 hours prior to ITT. 2. Extendin administered as a double dose, 21 hours prior to ITT plus a second Extendin dose 2 hours prior to ITT. 3. mAb as a single dose 6 hours prior to ITT.
An Insulin Tolerance Test (ITT) was conducted to assess two different anti-GLP1 mAbs (agonist and antagonist) effect on insulin sensitivity following acute insulin administration. 8 or 10-week old male mice were fasted for 6 hours and body weight was recorded before and after fasting. To avoid circadian variations in mouse blood glucose levels this testing was performed at fixed times. Blood samples were collected by tail nick and baseline glucose was measured prior to insulin injection. Mice were injected, i.p., with a single bolus (0.75 U/Kg body weight) of human insulin (Novolin, Novo Nordisk) and blood glucose levels were measured at 15, 30, 45, 60 and 120 minutes after insulin injection. Blood glucose levels were monitored using a OneTouch Ultra 2 glucose monitor (LifeScan, Inc.).

Experiment [2] concerns CHO-parent cells. Briefly: Flow cytometry binding assay on CHO-parent cells (background binding). Further details: species or system Chinese Hamster. The settings on record: for Median RL1-H of Parent Singlets: Table 6D, GLP1R-222 variants. How it is done:
GLP-1R IgG clones were tested in a binding assay coupled to flow cytometry analysis as follows: FLAG-GLP-1R-GFP expressing CHO cells (CHO-GLP-1R) and CHO-parent cells were incubated with 100 nM IgG for 1 h on ice, washed three times and incubated with Alexa 647 conjugated goat-anti-human antibody (1:200) (Jackson ImmunoResearch Laboratories, 109-605-044) for 30 min on ice, followed by three washes, centrifuging to pellet the cells between each washing step. All incubations and washes were in buffer containing PBS+1% BSA. For titrations, IgG was serially diluted 1:3 starting from 100 nM down to 0.046 nM. Cells were analyzed by flow cytometry and hits (a hit is an IgG that specifically binds to CHO-GLP-1R) were identified by measuring the GFP signal against the Alexa 647 signal. Flow cytometry data of binding assays with 100 nM IgG are presented as dot plots. Analyses of binding assays with IgG titrations are presented as binding curves plotting IgG concentrations against MFI (mean fluorescence intensity).
(In general: In flow cytometry, cells or beads pass a laser one at a time.)

Residue numbers refer to the chain shown, from its start.

For the molecule Exendin 9-39 [reference compound], the “Area Under the Curve (AUC) in ITT” value in experiment [1] (19+2 hour, Exendin 0.23 mg/kg) is on record as “no significant difference”; in experiment [1] (19+2 hour, GLP1R-3 20 mg/kg, Exendin 1 mg/kg), “significant (p<0.0001)”; in experiment [1] (single 6 hour treatment, GLP1R-3 20 mg/kg, Exendin 1.0 and 0.23 mg/kg), “no significant difference”. Moreover, the “blood glucose after insulin challenge” value in experiment [1] (19+2 hours dosing regimen, C57BL/6NHsd mice) is listed as “significantly stabilizes a higher blood glucose”.

B1: GLP1R222-056: GLP1R-222 variant, optimized from GLP1R-3 (antibody, V domains shown)
VH: QVQLVESGGGVVQPGRSLRLSCAASGFPFSSYAMHWVRQAPGKGLEWVAVISYDRSNKYYADSVKGRFTISRDNSKNTLYLQMNSLRAEDTAVYYCAKHMSMQEGAVTGYGQAAKEFIAWLVKGFVRADLVGDAFDVWGQGTLVTVSS
VL: QSVLTQPPSVSAAPGQKVTISCSGSSSNIGSNYISWYQQLPGTAPKLLIYDNDKRPAGIPDRFSGSKSGTSATLGITGLQTGDEADYYCGTWDTSLSVGEFGGGTKLTVL
On to B1, for which the “Median RL1-H of Parent Singlets” value in experiment [2] was found to be 230. The “Bmax CHO Parent” value in experiment [2] (Table 6F, IgG titration) is recorded as 237.5.

B2: GLP1R222-052: GLP1R-222 variant, optimized from GLP1R-3 (antibody, V domains shown)
VH: B1 VH with P28T, S30N, S31N, A33P, R55E, Y110G, F125R
VL: QSVLTQPPSVSAAPGQKVTISCSGSSSNIGKRSVSWYQQLPGTAPKLLIYDNNKRASGIPDRFSGSKSGTSATLGITGLQTGDEADYYCVTWDRSLSAGVFGGGTKLTVL
On to B2, for which the “Median RL1-H of Parent Singlets” value in experiment [2] stood at 27565.5. In experiment [2] (Table 6F, IgG titration), the “Bmax CHO Parent” value is 47529.

B3: GLP1R222-023: GLP1R-222 variant, optimized from GLP1R-3 (antibody, V domains shown)
VH: B1 VH with P28S, S31D, A33G, V50F, R55A, S56N, Y110E, G111W, F125R
VL: B2 VL with K31N, R32N, S33D, D51E, N53T, A56P, V90G, R94A, S95G, A98T
B3: the “Median RL1-H of Parent Singlets” value in experiment [2] is 310. For the same molecule, in experiment [2] (Table 6F, IgG titration), the “Bmax CHO Parent” value is given as 237.9 and the EC50 was found to be 89.4 nM.

B4: GLP1R222-082: GLP1R-222 variant, optimized from GLP1R-3 (antibody, V domains shown)
VH: B1 VH with P28T, S31A, A33S, V50L, R55A, S56T, Y110E, G111F, F125R
VL: B2 VL with K31S, R32K, S33Y, A56P, V90G, R94I, L96P, G99W
As to B4, in experiment [2], the “Median RL1-H of Parent Singlets” value is listed as 315. For the same molecule, the “Bmax CHO Parent” value in experiment [2] (Table 6F, IgG titration) came out at 305.

B5: GLP1R222-012: GLP1R-222 variant, optimized from GLP1R-3 (antibody, V domains shown)
VH: B1 VH with P28T, S30N, S31N, A33G, Y53D, D54E, R55G, Y110V, F125R
VL: B1 VL with S31N, Y33D, I34V, N52D, A57S
On to B5, for which the “Median RL1-H of Parent Singlets” value in experiment [2] is on record as 290.5. The “Bmax CHO Parent” value in experiment [2] (Table 6F, IgG titration) came to 340.6.

B6: GLP1R222-090: GLP1R-222 variant, optimized from GLP1R-3 (antibody, V domains shown)
VH: B1 VH with P28S, S31D, A33G, M34I, V50L, D54E, R55G, Y110E, G111K, F125R
VL: B2 VL with G30A, K31D, R32N, S33Y, V90A, R94N, S95R
Turning to B6, the “Median RL1-H of Parent Singlets” value in experiment [2] is 432. In experiment [2] (Table 6F, IgG titration), the “Bmax CHO Parent” value was 413.4.

B7: GLP1R222-081: GLP1R-222 variant, optimized from GLP1R-3 (antibody, V domains shown)
VH: B1 VH with P28T, S30D, S31N, M34L, V50L, R55A, S56G, Y110E
VL: B2 VL with K31S, R32D, S33Y, A56S, V90G, R94E, S97R, A98S, G99W
For B7, in experiment [2], the “Median RL1-H of Parent Singlets” value was 260. The “Bmax CHO Parent” value in experiment [2] (Table 6F, IgG titration) came to 243.4.

B8: GLP1R222-014: GLP1R-222 variant, optimized from GLP1R-3 (antibody, V domains shown)
VH: B1 VH with P28A, S31N, A33G, A49S, V50F, R55E, S85N, Y110E, G111W, F125R
VL: B2 VL with K31N, R32H, S33D, A56H, V90G, R94T
B8: in experiment [2], the “Median RL1-H of Parent Singlets” value was found to be 299. In addition, the “Bmax CHO Parent” value in experiment [2] (Table 6F, IgG titration) was determined as 336.4.

One may read the EC50 as the midpoint of the concentration-response curve.
